In assay [1] the target is human TNFR1 (recombinant, R&D Systems cat no. 636-R1/CF, biotinylated) (human) (UniProt P19438). In words: BIAcore, human TNFR1 on SA chip, second injection after DOM1h-574-16 as competitor.
Assay [2] addresses T1, peptide E5 (overlapping domain-3 peptide of human TNFR1) (human, also: biotinylated, position not given here).
T1 construct: also called peptide 3
T1 peptide: SGSGNQYRHYWSENLFQCF
In words: BIAcore, biotinylated peptide E5 on SA chip. A general note: SPR reads the build-up and loss of mass on a sensor chip optically.

In assay [3] the target is T2, peptide D5 (domain-3 peptide of human TNFR1) (human, also: biotinylated, position not given here).
T2 construct: also called peptide 2
T2 peptide: SGSGCRKNQYRHYWSENLF
In words: BIAcore, biotinylated peptide D5 on SA chip.

Assay [4] concerns the target T3, peptide A3 (negative control fragment of human TNFR1) (human, cysteine pairing not given here; also: biotinylated, position not given here).
T3 construct: also called control peptide
T3 peptide: SGSGNDCPGPGQDTDCREC
In words: BIAcore, biotinylated peptide A3 on SA chip.

Assay [5] has as its target T4, peptide D2 (domain-1 peptide of human TNFR1) (human, cysteine pairing not given here; also: biotinylated, position not given here).
T4 construct: also called peptide 1
T4 peptide: SGSGNSICCTKCHKGTYLY
In words: BIAcore, biotinylated peptide D2 on SA chip.

Assay [6] deals with T5, human TNFR1 (recombinant, R&D Systems cat no. 636-R1/CF, biotinylated) (human, UniProt P19438 30-211, limits assumed, biotinylated with EZ-Link NHS-LC-LC-biotin).
T5 construct: it is not tied to the BIAcore reagent; also called p55; hTNFR1
T5 sequence (looked up): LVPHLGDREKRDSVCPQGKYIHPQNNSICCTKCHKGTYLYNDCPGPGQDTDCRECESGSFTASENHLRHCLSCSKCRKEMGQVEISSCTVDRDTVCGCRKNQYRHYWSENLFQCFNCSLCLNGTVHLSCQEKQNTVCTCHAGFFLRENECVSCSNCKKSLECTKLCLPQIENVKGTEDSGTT
In words: BIAcore, biotinylated human TNFR1 on SA chip, purified dAb injected (concentration not given).

Assay [7] deals with T6, mouse serum albumin (MSA, Sigma-Aldrich) (mouse, UniProt P07724 25-608).
T6 construct: also called mouse albumin
In words: BIAcore, MSA on CM5 chip. The protocol:
FIG. 22. BIAcore analysis for binding of DOM0100-AlbudAb in-line fusions to mouse serum albumin (MSA). MSA (Sigma-Aldrich) was coated on a BIAcore CM5 chip using EDC/NHS chemistry according to manufacturer's instructions. Subsequently, the DMS constructs, each consisting N-terminally to C-terminally of an anti-TNFR1 dAb-Linker-AlbudAb and identified in Table 6, were injected at 1 μM over the MSA surface and binding was monitored. […] The corresponding BIAcore trace for each DMS clone is indicated with an arrow.
After expression and purification, all constructs were tested on the BIAcore for binding to both mouse and human serum albumin. The off-rates were determined and used to discriminate between the AlbudAbs for their suitability in prolonging the half-life of the fusion molecule. Whereas the linker had little influence on the affinity of the AlbudAb for albumin, a significant difference existed between the dAbs and their albumin affinity. The best AlbudAb for mouse binding was DOM7h-11-15 followed by DOM7m-16 and DOM7h-11-12 (FIG. 22).

In assay [8] the target is T7, human TNFR1 on MRC-5 cells (human, UniProt P19438 30-455).
T7 sequence (looked up): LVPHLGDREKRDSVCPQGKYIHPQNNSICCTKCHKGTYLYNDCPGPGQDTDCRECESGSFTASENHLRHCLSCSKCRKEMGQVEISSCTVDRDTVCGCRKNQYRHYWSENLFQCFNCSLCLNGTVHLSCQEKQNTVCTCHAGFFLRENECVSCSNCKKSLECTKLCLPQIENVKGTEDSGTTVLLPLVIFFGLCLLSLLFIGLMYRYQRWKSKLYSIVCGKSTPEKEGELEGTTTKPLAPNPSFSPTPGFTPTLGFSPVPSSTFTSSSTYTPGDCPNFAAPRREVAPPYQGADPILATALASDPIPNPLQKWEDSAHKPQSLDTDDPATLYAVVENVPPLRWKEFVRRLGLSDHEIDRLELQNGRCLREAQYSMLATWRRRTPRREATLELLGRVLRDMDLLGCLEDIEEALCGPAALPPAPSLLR
In words: cell-based or functional assay.

Assay [9] deals with T8, human serum albumin (HSA, Sigma-Aldrich) (human, UniProt P02768 25-609).
T8 construct: also called human albumin
In words: BIAcore, HSA on CM5 chip. The protocol: FIG. 23. BIAcore analysis for binding of DOM0100-AlbudAb in-line fusions to human serum albumin (HSA). HSA (Sigma-Aldrich) was coated on a BIAcore CM5 chip using EDC/NHS chemistry according to manufacturer's instructions. Subsequently, the DMS constructs, each consisting N-terminally to C-terminally of an anti-TNFR1 dAb-Linker-AlbudAb and identified in Table 6, were injected at 1 μM over the HSA surface and binding was monitored. […] The corresponding BIAcore trace for each DMS clone is indicated with an arrow.

Assay [10] has as its target T7, human TNFR1 on MRC-5 cells. In words: cell-based or functional assay. This is another data set of the same source.
The target in assay [11] is T9, mouse TNFR1 on L929 cells (mouse, UniProt P25118 30-454).
T9 sequence (looked up): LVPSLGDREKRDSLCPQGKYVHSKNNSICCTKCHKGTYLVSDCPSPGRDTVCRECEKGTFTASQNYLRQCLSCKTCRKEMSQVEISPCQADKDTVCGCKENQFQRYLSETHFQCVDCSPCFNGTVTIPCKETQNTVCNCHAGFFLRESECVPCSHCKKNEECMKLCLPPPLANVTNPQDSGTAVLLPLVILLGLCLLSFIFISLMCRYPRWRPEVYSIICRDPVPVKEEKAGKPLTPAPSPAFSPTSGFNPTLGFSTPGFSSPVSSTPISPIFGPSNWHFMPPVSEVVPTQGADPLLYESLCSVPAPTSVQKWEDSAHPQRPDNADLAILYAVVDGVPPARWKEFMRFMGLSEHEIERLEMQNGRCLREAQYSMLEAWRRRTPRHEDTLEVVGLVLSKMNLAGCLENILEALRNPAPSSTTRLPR
In words: cell-based or functional assay.

Assay [12] has as its target T5, human TNFR1 (recombinant, R&D Systems …). In words: BIAcore, TNFR1 (species not given, taken as human).

Ends that are not written are not given here.

T8 sequence (P02768 25-609 limits assumed): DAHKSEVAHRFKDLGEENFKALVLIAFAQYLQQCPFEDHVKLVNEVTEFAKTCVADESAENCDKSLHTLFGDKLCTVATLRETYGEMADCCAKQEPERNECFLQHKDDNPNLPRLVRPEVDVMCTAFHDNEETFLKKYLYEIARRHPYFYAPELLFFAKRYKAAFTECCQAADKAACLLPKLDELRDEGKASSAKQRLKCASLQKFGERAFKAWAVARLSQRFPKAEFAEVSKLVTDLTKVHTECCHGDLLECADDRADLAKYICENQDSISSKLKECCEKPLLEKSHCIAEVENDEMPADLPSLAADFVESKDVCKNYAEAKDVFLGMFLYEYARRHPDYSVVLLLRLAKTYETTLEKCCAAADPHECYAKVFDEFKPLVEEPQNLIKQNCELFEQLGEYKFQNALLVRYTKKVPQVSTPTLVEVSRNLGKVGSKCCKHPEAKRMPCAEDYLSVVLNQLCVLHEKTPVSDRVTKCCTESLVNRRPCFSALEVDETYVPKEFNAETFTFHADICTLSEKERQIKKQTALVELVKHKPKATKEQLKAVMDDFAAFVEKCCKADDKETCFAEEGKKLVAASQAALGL

With “mAb Clone 4.12 (Invitrogen, cat. no. Zymed 33-0100) (antibody)”, the decrease of binding (RUs) in the presence of the competitor in assay [1] stood at 20%.

B1: DOM1m-21-23 (other)
VH: EVQLLESGGGLVQPGGSLRLSCAASGFTFNRYSMGWLRQAPGKGLEWVSRIDSYGRGTYYEDPVKGRFSISRDNSKNTLYLQMNSLRAEDTAVYYCAKISQFGSNAFDYWGQGTQVTVSS
notes: VH dAb; also called DOM1m-12-23 [sic]
In the case of B1, the binding result in assay [2], in [3], in [4] and in assay [5] was “no binding (tested: 2.5 µM)” in each case.

B2: DOM1h-509 (other)
VH: EVQLLESGGGLVQPGGSLRLSCAASGFTFSQYRMHWVRQAPGKSLEWVSSIDTRGSSTYYADPVKGRFTISRDNSKNTLYLQMNSLRAEDTAVYYCAKAVTMFSPFFDYWGQGTLVTVSS
notes: VH domain antibody (dAb)
With B2, the binding result in [6] is “binds”.

B3: DMS0163 (bispecific antibody)
chain: EVQLLESGGGLVQPGGSLRLSCAASGFTFVKYSMGWVRQAPGKGPEWVSQISNTGDRTYYADSVKGRFTISRDNSKNTLYLQMNSLRAEDTAVYYCAIYTGRWEPFDYWGQGTLVTVSSASTSGPSDIQMTQSPSSLSASVGDRVTITCRASRPIGTMLSWYQQKPGKAPKLLILAFSRLQSGVPSRFSGSGSGTDFTLTISSLQPEDFATYYCAQAGTHPTTFGQGTKVEIKRAAAEQKLISEEDLN
notes: anti-TNFR1 dAb / AlbudAb in-line fusion
Regarding B3, the off-rate constant (koff) in assay [7] came to 0.0062 s⁻¹; in assay [9], 0.0024 s⁻¹. In addition, the “ND50 (MRC5)” value in assay [8] was found to be 12 nM.

B4: DOM1h-549 (other)
VH: EVQLLESGGGLVQPGGSLRLSCAASGFTFVDYEMHWVRQAPGKGLEWVSSISESGTTTYYADSVKGRFTISRDNSKNTLYLQMNSLRAEDTAVYYCAKRRFSASTFDYWGQGTLVTVSS
notes: VH dAb
In the case of B4, in [6], the binding result was “binds”.

B5: DMS0132 (bispecific antibody)
chain: EVQLLESGGGLVQPGGSLRLSCAASGFTFVKYSMGWVRQAPGKGLEWVSQISDTADRTYYAHSVKGRFTISRDNSKNTLYLQMNSLRAEDTAVYYCAIYTGRWVPFEYWGQGTLVTVSSASTDIQMTQSPSSLSASVGDRVTITCRASRPIGTTLSWYQQKPGKAPKLLILWNSRLQSGVPSRFSGSGSGTDFTLTISSLQPEDFATYYCAQAGTHPTTFGQGTKVEIKR
notes: as for B3
Take B5: in assay [10], the “MRC5 ND50” value stood at 1.04 nM. In assay [11], the “L929 ND50” value is 6.8 nM. For the same molecule, in assay [12], the equilibrium dissociation constant (Kd) was found to be 0.25 nM, the koff came out at 4.6e-05 s⁻¹ and the kon was 190000 M⁻¹ s⁻¹.

B6: DMS0135 (bispecific antibody)
chain: EVQLLESGGGLVQPGGSLRLSCAASGFTFFKYSMGWVRQAPGKGLEWVSQISDTADRTYYSHSVKGRFTISRDNSKNTLYLQMNSLRAEDTAVYYCAIYTGRWVPFEYWGQGTLVTVSSASTDIQMTQSPSSLSASVGDRVTITCRASRPIGTTLSWYQQKPGKAPKLLILWNSRLQSGVPSRFSGSGSGTDFTLTISSLQPEDFATYYCAQAGTHPTTFGQGTKVEIKR
notes: as for B3
For the molecule B6, the “MRC5 ND50” value in [10] was determined as 1.17 nM. Also, in [11], the “L929 ND50” value worked out at 5.9 nM. Also, in assay [12], the Kd came out at 0.32 nM, the koff was determined as 5.7e-05 s⁻¹ and the kon was determined as 180000 M⁻¹ s⁻¹.

B7: DMS0134 (bispecific antibody)
chain: EVQLLESGGGLVQPGGSLRLSCAASGFTFFKYSMGWVRQAPGKGLEWVSQISDTADRTYYAHSVKGRFTISRDNSKNTLYLQMNSLRAEDTAVYYCAIYTGRWVPFEYWGQGTLVTVSSASTDIQMTQSPSSLSASVGDRVTITCRASRPIGTTLSWYQQKPGKAPKLLILWNSRLQSGVPSRFSGSGSGTDFTLTISSLQPEDFATYYCAQAGTHPTTFGQGTKVEIKR
notes: as for B3
For the molecule B7, in [10], the “MRC5 ND50” value turned out to be 0.96 nM. Further, the “L929 ND50” value in [11] turned out to be 5.8 nM. In assay [12], the equilibrium dissociation constant (Kd) turned out to be 0.26 nM, the koff was determined as 4.9e-05 s⁻¹ and the kon is 190000 M⁻¹ s⁻¹.

B8: DMS0133 (bispecific antibody)
chain: EVQLLESGGGLVQPGGSLRLSCAASGFTFFKYSMGWVRQAPGKGLEWVSQISDTADRTYYAHSVKGRFTISRDNSKNTLYLQMNSLRAEDTAVYYCAIYTGRWAPFEYWGQGTLVTVSSASTDIQMTQSPSSLSASVGDRVTITCRASRPIGTTLSWYQQKPGKAPKLLILWNSRLQSGVPSRFSGSGSGTDFTLTISSLQPEDFATYYCAQAGTHPTTFGQGTKVEIKR
notes: as for B3
Regarding B8, the “MRC5 ND50” value in [10] was 0.99 nM. Moreover, the “L929 ND50” value in assay [11] came to 4.2 nM. In [12], the dissociation constant Kd came out at 0.2 nM, the koff was determined as 3.6e-05 s⁻¹ and the kon is ~180000 M⁻¹ s⁻¹.

By koff is commonly meant the first-order rate constant of dissociation. As a reminder, the Kd is the constant that tells how readily two partners part at equilibrium. A word on the kon: it is the second-order rate constant of association.

Source of the values: patent US20120107330A1 (published 2012).
